Results reported in the supplement of paper PMC9112550, “Optimization of the antimicrobial peptide Bac7 by deep mutational scanning” (BMC Biology, 2022).

System: Escherichia coli TOP10
Assay: shrunken log2 fold change of peptide-encoding DNA abundance (4.5 h post-induction vs induction); higher = less antimicrobial activity (less host growth inhibition)
Details: time post-induction: 4.5 h; library: site-saturation at positions 5, 18, 19, 20
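Further: peptides expressed intracellularly from a pBAD plasmid library in pooled LB shake-flask culture, induced with 0.3% L-arabinose, DNA abundance read by NGS, three biological replicates, DESeq2 with apeglm shrinkage.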

Sequence | shrunken log2 fold change
RRIRSRPPRLPRPRPRPTWGPRP | 0.134
RRIRARPPRLPRPRPRPWLNPRP | -0.175
RRIRCRPPRLPRPRPRPGKPPRP | 0.506
RRIRCRPPRLPRPRPRPIPRPRP | 0.73
RRIRNRPPRLPRPRPRPIPYPRP | -0.0122
RRIRVRPPRLPRPRPRPQQCPRP | 0.145
RRIRSRPPRLPRPRPRPIQVPRP | 0.0973
RRIRKRPPRLPRPRPRPTGWPRP | 1.44
RRIRFRPPRLPRPRPRPWLSPRP | -0.129
RRIRMRPPRLPRPRPRPEEYPRP | 0.0514
RRIRTRPPRLPRPRPRPMFRPRP | -0.193
RRIRMRPPRLPRPRPRPSRTPRP | 0.715
RRIRGRPPRLPRPRPRPHYAPRP | -0.0664
RRIRQRPPRLPRPRPRPFPHPRP | 0.259
RRIRSRPPRLPRPRPRPKPYPRP | -0.153
RRIRNRPPRLPRPRPRPTVLPRP | -0.091
RRIRTRPPRLPRPRPRPPMFPRP | -0.097
RRIRVRPPRLPRPRPRPSWHPRP | -0.00555
RRIRQRPPRLPRPRPRPHRTPRP | -0.0723
RRIRLRPPRLPRPRPRPKTRPRP | 0.226
RRIRTRPPRLPRPRPRPLNVPRP | -0.0675
RRIRIRPPRLPRPRPRPLKKPRP | -0.094
RRIRMRPPRLPRPRPRPCWHPRP | -0.0624
RRIRNRPPRLPRPRPRPDGDPRP | -0.194
RRIRWRPPRLPRPRPRPEMAPRP | 1.14

Sequence | shrunken log2 fold change
RRIRQRPPRLPRPRPRPEPDPRP | 0.271
RRIRWRPPRLPRPRPRPYWMPRP | -0.265
RRIRARPPRLPRPRPRPWGKPRP | 0.0748
RRIRKRPPRLPRPRPRPIRQPRP | 0.0556
RRIRTRPPRLPRPRPRPGQYPRP | -0.286
RRIRWRPPRLPRPRPRPCWQPRP | -0.0167
RRIRFRPPRLPRPRPRPFWNPRP | -0.00687
RRIRHRPPRLPRPRPRPYVVPRP | 0.0242
RRIRRRPPRLPRPRPRPCMLPRP | -0.151
RRIRRRPPRLPRPRPRPGGMPRP | 0.235
RRIRGRPPRLPRPRPRPIHNPRP | -0.268
RRIRMRPPRLPRPRPRPWIMPRP | 0.00173
RRIRERPPRLPRPRPRPDPFPRP | -0.102
RRIRKRPPRLPRPRPRPWSQPRP | -0.0225
RRIRTRPPRLPRPRPRPHWMPRP | -0.243
RRIRVRPPRLPRPRPRPYTIPRP | -0.736
RRIRMRPPRLPRPRPRPSAVPRP | 1.16
RRIRKRPPRLPRPRPRPTNSPRP | -0.241
RRIRWRPPRLPRPRPRPFARPRP | 0.188
RRIRCRPPRLPRPRPRPFAVPRP | -0.169
RRIRCRPPRLPRPRPRPGDKPRP | -0.441
RRIRYRPPRLPRPRPRPHEEPRP | -0.018
RRIRSRPPRLPRPRPRPEMDPRP | -0.0847
RRIRFRPPRLPRPRPRPGDWPRP | 0.666
RRIRSRPPRLPRPRPRPKGCPRP | 0.134
